The source of these data is US20060270591A1, “Androgen receptor coregulators” (priority 2002, published 2006).

The target of assay [1] is T1, ER (Homo sapiens, UniProt P03372).
T1 sequence (P03372 1-595): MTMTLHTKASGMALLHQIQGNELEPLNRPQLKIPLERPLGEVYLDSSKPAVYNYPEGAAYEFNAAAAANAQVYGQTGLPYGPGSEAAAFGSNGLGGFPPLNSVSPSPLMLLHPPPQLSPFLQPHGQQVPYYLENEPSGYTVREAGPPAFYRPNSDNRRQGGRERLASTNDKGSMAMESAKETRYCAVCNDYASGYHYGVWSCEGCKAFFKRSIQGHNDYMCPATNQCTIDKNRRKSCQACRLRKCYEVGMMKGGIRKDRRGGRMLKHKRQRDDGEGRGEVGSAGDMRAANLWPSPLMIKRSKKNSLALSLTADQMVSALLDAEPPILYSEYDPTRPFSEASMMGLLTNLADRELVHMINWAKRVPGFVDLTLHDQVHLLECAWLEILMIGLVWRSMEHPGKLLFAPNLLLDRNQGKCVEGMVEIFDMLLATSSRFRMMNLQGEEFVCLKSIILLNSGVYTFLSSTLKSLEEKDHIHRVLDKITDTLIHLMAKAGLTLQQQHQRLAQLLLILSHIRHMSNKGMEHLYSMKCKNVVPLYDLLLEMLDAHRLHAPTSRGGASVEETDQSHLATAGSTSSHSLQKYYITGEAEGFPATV
Briefly: ER transactivation with ARA70 in DU145 cells (Example 3). Also noted: expressed in transfected cells; host or cells: DU145. The class given is cell-based. As for the experimental part: 411. Human prostate cancer DU145 and PC-3 cells were maintained in […] (DMEM) containing penicillin (25 U/ml), streptomycin (25 μg/ml), and 5% fetal calf serum (FCS). Human LNCaP cells were maintained in RPMI containing penicillin (25 U/ml), streptomycin (25 μg/ml), and 10% FCS. Transfections were performed using the calcium phosphate precipitation method, as previously described (Dynlacht et al. (1991) Cell 66, 563-576). Briefly, 4×10^5 cells were plated on 60-mm dishes 24 hours before transfection, and the medium was changed to DMEM with 5% charcoal-dextran stripped FCS (CS-FBS) one hour before transfection. Transfection medium contained a constant amount of reporter plasmid and indicated amounts of pSG5-receptor, ARA70, or pCMX-GAL fusion construct using pSG5 as a carrier to provide equal amounts of transfected DNA. Twenty-four hours after transfection, the medium was changed again, and the cells were treated with DHT or other treatments. After another 24 hours, the cells were harvested for chloramphenicol transferase (CAT) or luciferase assays. At least three independent experiments were carried out in each case. Superfect (Qiagen) was used for transfection in LNCaP cells. The transfection conditions followed the manufacturer's protocol. […]

For assay [2], the target named is T2, GR (Homo sapiens, UniProt P04150).
T2 sequence (P04150 1-777): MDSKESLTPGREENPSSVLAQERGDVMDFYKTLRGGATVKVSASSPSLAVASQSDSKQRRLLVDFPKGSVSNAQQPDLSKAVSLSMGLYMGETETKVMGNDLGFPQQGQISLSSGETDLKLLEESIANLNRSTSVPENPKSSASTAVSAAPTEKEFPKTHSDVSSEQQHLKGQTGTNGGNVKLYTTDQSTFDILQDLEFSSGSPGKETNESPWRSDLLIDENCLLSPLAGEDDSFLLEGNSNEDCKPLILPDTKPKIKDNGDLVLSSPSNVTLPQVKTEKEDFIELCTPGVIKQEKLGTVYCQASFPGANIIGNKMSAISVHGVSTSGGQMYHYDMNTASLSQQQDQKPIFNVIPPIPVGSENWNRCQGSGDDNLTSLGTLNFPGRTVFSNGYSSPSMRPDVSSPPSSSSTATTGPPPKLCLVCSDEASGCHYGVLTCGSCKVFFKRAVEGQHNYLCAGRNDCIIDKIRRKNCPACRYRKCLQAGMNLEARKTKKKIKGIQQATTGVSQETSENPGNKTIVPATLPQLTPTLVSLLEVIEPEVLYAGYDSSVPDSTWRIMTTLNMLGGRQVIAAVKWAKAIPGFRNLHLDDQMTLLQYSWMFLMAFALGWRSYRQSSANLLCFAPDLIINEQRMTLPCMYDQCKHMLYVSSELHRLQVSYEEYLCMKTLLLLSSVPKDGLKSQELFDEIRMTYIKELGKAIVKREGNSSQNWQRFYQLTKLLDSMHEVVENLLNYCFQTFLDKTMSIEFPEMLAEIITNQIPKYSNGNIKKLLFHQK
Briefly: GR transactivation reporter assay with SV. Also noted: expressed in transfected cells; host or cells: DU145, PC-3, HepG2. It counts as cell-based. The conditions noted are these: MMTV-Luc; compared to AR. Here is the method: 42. […] (A) The interaction of SV with AR, GR, PPAR-γ and ER-α is tested in mammalian two-hybrid assay. One μg plasmids expressing Gal4(DBD)-AR, GR, PPAR-γ or ER-α was co-transfected with 4 μg plasmids expressing VP16 or VP16-SVn to COS-1 cells. […] The assay method was the same as described in FIG. 29. Relative activities of ligand treatment to EtOH treatment are shown. (B) The coactivation function of SV in different receptors was assayed using reporter gene study. MMTV-Luc, PPRE-Luc, ERE-Luc are the reporter genes for AR, GR, PPAR-γ, and ER-α respectively. Lanes 1, 5, 9 and 13 are regarded as 1 fold in each panel.
475. In AR transactivation activity assays, transfections were performed using SuperFect (Qiagen, Chatsworth, Calif.) following protocols described in manual provided by Qiagen. Briefly, cells were plated on 35 mm dishes and after 24 h were transfected using the SuperFect kit. The total DNA amount was adjusted to 2 μg with pSG5 or pEGFP vectors. The medium was changed to DMEM with 10% CD-FBS 2 h after transfection. After 24 h, the DMEM with 10% CD-FBS was changed again, and the cells were treated with various steroids. Cells were harvested after 24 h for dual-luciferase assay as described in protocol provided by Promega. At least three independent experiments were carried out in each case.
For orientation: A reporter such as luciferase makes a cellular process visible.

On to “ARA70: ligand-enhanced AR coregulator, full length ARA70”, for which the “enhancement of ER transactivation” value in assay [1] is given as 2-3 fold.

In the case of “SV: supervillin, 205 kDa actin binding protein; bovine SV (a.a. 1-1792) used in reporter assays”, the “effect on the transactivation of GR” value in assay [2] is “less enhancement effect”.
